Results as given in the DeepSol protein solubility set.

test: soluble on expression in E. coli; label from the status in PepcDB or PDB records

Sequence	soluble on expression in E. coli
MKNKLPPFIEIYRALIATPSISATEEALDQSNADLITLLADWFKDLGFNVEVQPVPGTRNKFNMLASTGQGAGGLLLAGHTDTVPFDDGRWTRDPFTLTEHDGKLYGLGTADMKGFFAFILDALRDVDVTKLKKPLYILATADEETSMAGARYFAETTALRPDCAIIGEPTSLQPVRAHKGHISNAIRIQGQSGHSSDPARGVNAIELMHDAIGHILQLRDNLKERYHYEAFTVPYPTLNLGHIHGGDASNRICAWCELHMDIRPLPGMTLNELNGLLNDALAPVSERWPGRLTVDELHPPIPGYECPPNHQLVEVVEKLLGAKTEVVNYCTEAPFIQTLCPTLVLGPGSINQAHQPDEYLETRFIKPTRELITQVIHHFCWH	soluble
MKNKNDQHLRLQQQIIHYRSEAASCRQQVQQLEAELAKEKMRSAYLKEKLREAETTNVETYKKKIAALERQLLLCEIALEETRYNTSKETQTPAFERAAAVSALFHYSVVVPTHLDEEELTIIGDFIIRNHGTAPLHHLIVCLRLSPPKTAVLSGKIVLPNSGRAEQEALISNSAESWTFTQENWREKVRQSGEYWLAPLYDAPLEPGEERRFSQFEITVPPSSNARSLTVDGFVYCAELPKGVPAANHIAIQW	not soluble
MKNLPIGGVWKGKVKLHSNSPAQDYFANITLNTLDPNHIDVFFPEFAHATPRVQLDLHPTGSVNGSNYAQDLTMLDMCLYDGFNGNAISYEIMLKDEGRPAAGRRDGYFSIYRQGGTTTDEGERIDYRVKMYNPETGGQIDVRNNENMVWNSINLKRVRPVVLPGIRYAVMCVPTPLTLAVDKFSVMDKQAGYYMGKLSVIFTPSLPTIN	not soluble
MKNNPKTRYPLRLEESYAKNIQKAVKEIEKVSLYEFDKYLAPMIDDKNIVNDSNLINDGLFDAASKLIRNAQTYFLGILQNRTAQKIVRKHINSVNAFNKSNVNSQLSARGINPLQTEKWLDSYVQAKIAENISYVTNIRDDYSKKFEQVIYRGITEGKSSNEIREELVHQAGMSSDKAAFIARDQTGTILGQMNSERQKRAGFQAFRWSDSGDERVRDSHRERNGKIYFYADNPLLPGEEYNCRCVAEPVDDEELLEESIDLGLSNQEEHAVKTYVSSEAYKLNDKLRNGYQLDESDLKLIDNLDKALGKMTNYDGEVTRSMFFDSSDDLVRFANNYNLNDVVQFPEYISTTKDIYSEQDSLRFVIMSSTGKDLGSYNKSEKEVLFNRDAKFIVKDRYLLDGKPFIVLEEYHE	not soluble
MKNPQSKADDILQCARTLIIRGGYNSFSYADISQVVGIRNASIHHHFPSKSDLVCKLVSQYRQEAEAGIAELEKNISDPLEQLRAYIGYWEGCIADATHPFCVCALLASEIPVLPETVVLEVRAHFRSLSDWLTAVLERGIAQGRLVLTGTARANAEIFMATVHGAMLSARAHGDAATFGAITRPMLERITA	soluble
MKNVGDVGDLCTGCGTCAAMCPLESVVMRIDHDRGVYEPLVDGECDGCGVCLRVCPGVGVDFTDLNMRVFGREPDDMLMGNYEECYIAHSRDDELRYGASSGGMISQILIYLLEEGLIDGALVTRMNPERPLEPEPFIARTPSEIIESRGSKYCPVPANVALKEILEVPGRYAVVGLPCHIHGVRKAEVISRKLRERIVYHLGIVCNHAPSFRATEFLLERLGVDPGDVKSIRYRGEGWPGSLRVETESGDLLLLPEYWGSGFGQLFMPERCRLCADHMAELSDISFADPWLKELKDEKKGRTLVIIRKWPEKFAGILKGGICEMDKIKPEKALLSQIYNIYMKKKLCRRSMYNGSFPEIDFIDRIILSFEPSRLKIPWTIKRRYIFFYSMIVALKARMDFLGDSKLEHHHHHH	soluble
MKNVLILGAGGQIARHVINQLADKQTIKQTLFARQPAKIHKPYPTNSQIIMGDVLNHAALKQAMQGQDIVYANLTGEDLDIQANSVIAAMKACDVKRLIFVLSLGIYDEVPGKFVEWNNAVIGEPLKPFRRAADAIEASGLEYTILRPAWLTDEDIIDYELTSRNEPFKGTIVSRKSVAALITDIIDKPEKHIGENIGINQPGTDGDKPFFM	soluble
MKPAIKRACLLGTALFSLCASAAQAAGVLVGTWDLRGNGQLAAVYRDGANLQVVEGGSTRNYSFGNVVWSVFGATDTDGQPGAEILVKAGPDLVIVSHASTTQRKYPVGNVSWAIMRATDVDNVAGDEVILSIGNGVRTVFDRTRTQRDATFSYNGTWGLFDVADVDGAPGKELVLNMGNGVKVIDPRTSGAKDFTFSGYHALAQIADLDGQPGAEIIGRTSTGIYVISNASSRKEYSIGASAWALYGGTADTDGKPGNELIVVMQGKVRVIHHASGASSDYRIGDVNYSIDSVADMDGQPGAEILVRDANGKLFVINDRTGKVSS	not soluble
MKPAYPPLLLQMSPAYTPRPLKNLFTANQCWAHLIEEGGLRDIEVESVTKMLACGTSILGVKHYTCGNHSCPHVKYLCNTCSCRACPSCGKKATDQWIANQQHRLPECTWQHLVFTLPDTLWPLFFHNRHWLDALCRLAVDNLLYAGRRRGVEVGVFCAIHTYGRRLNWHPHIHVSVTLGGIDDAGVWKDLSFHPSALRRRWMWNVRQYLLSQWEHTTVPPENAHLQSENDWRHLVLNAGGQHWHIHLSKKTKNGKKTVNYLGRYLKKPPISGSRLAHYTSGATLSFTYLDHRTKTYQQETLSQTDMLRRVVQHIPEKHFRMIRYFGFLANRVCGRQLPRVYEAIRMERRGKAPKLYFAQMSKAFLHRDPFSCVLCGARMVYTAAIAGLTVQGLINNAQSIAQLRYVPA	not soluble
MKPDETPMFDPSLLKEVDWSQNTATFSPAISPTHPGEGLVLRPLCTADLNRGFFKVLGQLTETGVVSPEQFMKSFEHMKKSGDYYVTVVEDVTLGQIVATATLIIEHKFIHSCAKRGRVEDVVVSDECRGKQLGKLLLSTLTLLSKKLNCYKITLECLPQNVGFYKKFGYTVSEENYMCRRFLK	soluble
MKPIDRFSYLKNNRVSQDTSSLVQCYLPIIGQEALSLYLYTISFWDNGRKEYLFSSILNHLNFGMDRLIKSLKILSAFNLLTLYQKGDVYQLALHAPLSSQDFLGHPVYRRLLEKKIGDVAVEDLKVESADGEEIPVSLNQVFPELAELGSQEDLGLKKKVANDFDLEHFRQLMARDGLRFADEQSDVLNLFAIAEEKKWTWFETYQLAKSTAVSQVISTKRMREKIAQKPVSSDFSLKEATIIKEAKSKTALQFLAEIKQTRKGTITQTERELLQQMAGLGLLDEVINIILLLTFNKVDSANINEKYAMKVANDYAYQKIHSAEEAVLRIRDRGQKAKTQKQNQTAPEKTNVPKWSNPEYKNETSEETRLELERKKQELLARLEKGGD	not soluble
MKPLLLSRRTHQKPGNYASGRGFPSSTRYIEDVQWLLKEFEPFVRVSADLPFVKARDIALIRSELEKKKPASLEVCLLEHHHHHH	not soluble
MKPVQSVSATQHYNPLTNLGQEASCSHEISGITQTEGMQATAATTQTAEQLTTARVRDITAAAKVIPDGTTVMSRKPEDLSQLQTAYLAAKNAPTHPDLYLKLCETFRVHDERHASEGHENICAKTMTARIDDDAIRVMAYASRGMHGGDVNNFLKFSFNSGLPNPISSALPSMLTFGASSFIGAVHGPWSGFGSALAFAAAKPFMAGGIQPAIVSLCDNIRGRNAPTVLAKGEVNDEIWLDAAAQTLEGLNEDTRRALTSFDDAVQAAITSVGIRDPKFLETDEGLELFFDHLSDTHFNCLREALEGVNNALQNTAPQTRESLRALEEASRPNMLEQRETTLKAEFSNLRQKEGNDWQRIPRSLRASGGTLTSGLSGLKRDEIPTRMNPALDRKSHFEGLNALASPAVGTSYAAAISLLQSPMAGLDERNKQKFNVKAAIVFYDAFTPEGKQRYLAGEEMDPDRDVDQAKLRGVFTSVSEYMVKSTQENLKQRQKVLGVEISEAGHALNALPENTSSITPPEIRAKVERYKALSADMSAVTQAIREGNPNFLTDLPDGEVKKAFDDCVNSGGMHVLENMTKVKYAKQGELKAQWTQKVSTDVSMFGLAGQFTPSIVNKLAAAICGGAGHIPNAVVGFLGAYSLAASFIGAQTQFAAINAKNNFREGNPKPTSLETFMRGNLAPVMQASANRHSQHALQGAEQAISTARQALNSSLGQNL	not soluble
MKQFNLIATSGQGIEALVAKELNNLGYQTRTENGFVRFSGNQRDILKTNIWLRTADRIKILVGEFHTLRFDDLFESVKALPWSELINWDDQFPVMEAHSRDSQLFSVPDIQRITKKAIVEALRSQTGHEDLPETGKHVGIDIRIDKNNVRIMIDTSGESLFKRGYRTEHGGAPLKENFAAALVLLTNWFTDNPFVDPVCGSGTIPIEAALIGKNIAPGINRTFEIESWAWFDKKLSQDVREEADILAKYDQPLDISGYDIDGNMIRISKENAKKAGLYNDIAFKQLAVKDWQTDKINGILVANPPYGQRLGEIEDARQIYQQMGSIYNQMSTWSKYILTSDEKFEQFYGKKATKKRKLYNGPIRTDLYQYWGKKVR	not soluble
MKQLTVEDAKQIELEILDYIDTLCKKHNINYIINYGTLIGAVRHEGFIPWDDDIDLSMPREDYQRFINIFQKEKSKYKLLSLETDKNYFNNFIKITDSTTKIIDTRNTKTYESGIFIDIFPIDRFDDPKVIDTCYKLESFKLLSFSKHKNIVYKDSLLKDWIRTAFWLLLRPVSPRYFANKIEKEIQKYSRENGQYMAFIPSKFKEKEVFPSGTFDKTIDLPFENLSLPAPEKFDTILTQFYGDYMTLPPEEKRFYSHEFHAYKLEDLEHHHHHH	soluble
MKQPKVSVIVTCYNYATYLEGCLASILNQTYQDFELVIINDGSTDNTDEVISRFLDNDKVRYINQKNTGQAIATNNGIAAAAGELIAFLDADDLWEPTKLEKQVRLFNRDSIGVVYSRIRFMDAEGCTLDMQLEGKYYTPRSGRVTDALLFENFIPYSSTVVRKECFDKFGMFNPEYKNGLDWDLWLRISREYEFDFVDEYLLIYRIGHPGQLTSNVERSVRCADLIFDRFLEENPGIVPDSVVRKAMAYSYCRRGNQFRKIDRKRSNGFFLNALAKNPAEIGAYVGLVKNFLNMLEHHHHHH	not soluble
MKQQGTTLPANNHTLKQYAFFAGMLSSLKKQKWRKGMSESLHLTRNGSILEITLDRPKANAIDAKTSFEMGEVFLNFRDDPQLRVAIITGAGEKFFSAGWDLKAAAEGEAPDADFGPGGFAGLTEIFNLDKPVIAAVNGYAFGGGFELALAADFIVCADNASFALPEAKLGIVPDSGGVLRLPKILPPAIVNEMVMTGRRMGAEEALRWGIVNRVVSQAELMDNARELAQQLVNSAPLAIAALKEIYRTTSEMPVEEAYRYIRSGVLKHYPSVLHSEDAIEGPLAFAEKRDPVWKGR	not soluble
MKQTFITLGEGLTDLFEFMTMIEYNHQRIDKIIYFHSPQAENKKSSVAIIMNPTTGNHFQAFYIMINAIKYPYPDSNKKFQMINDCAEKFDIPILGIDVQPPQAFHDLSLYYNYLISVLRLQKWIPELQLEHHHHHH	not soluble
MKRCLAILAFAALLFPALPAYSAPARQPSSNTPPPDIVMHPEYARTIGRLAYVWGWPMVNMLNRNARITKAPHPGLLGGILPAAPRGQVGMLHDYILPAETFVTCPNQDVVYGLGFFSLDTEPVIAQVPDFGDRFWVYALYDHRTNQFGELGKPYRSKPGFYLLVGPNWKGQKPAGVQAIIRSPTALANAIPRIFMDDTDEDRQAIQKKINQVVFYPLKDFDGKMKSLDWQSTADIPNPGADSANAGETRWVVPEEFFNQFGQVLDMVPPLPGEEAMYVQFRSMMDAAAKDPAIKNALVEVAKETEEQVIAPFFQWKHNGKPAGNNWNRSVNNAQTGLDYFNRTGTAKSNMFDNRPNETQYFYTDFDSTGAVLDGGKRYEITFASGQLPPVKGFWSLTLYNKHHLFSPNDLNRYSLGTKNKNLVRGPDGSLTIHVGPTSPGKDKEANWLPSPREPISLYIRAYWGEQAILDGTWKPPAVKKIELEHHHHHH	not soluble
MKRFRKNNLELELIRELSEIDFYNISAPLNSKEFWKEWQEKFNRANLTRIALRNILRNKRLSPKEYRKVKNSIKKYEDIINYLNALKLTALNARGSFGGYFIEFDEDEEENEGGT	not soluble
